Results as given in publication PMC5289646, “Proline Metabolism is Essential for Trypanosoma brucei brucei Survival in the Tsetse Vector” (PLoS Pathogens, 2017).

Experiments:
[1] = substrate: O=C(O)C1CCC=N1; assay: cells, lysate or membranes; conditions: 1 mM NAD+ (saturating), 20-600 μM P5C/γGS, potassium phosphate pH 7.2, 28°C, racemic substrate in equilibrium with open form, crude homogenate
[2] = substrate: NC(=O)c1ccc[n+]([C@@H]2O[C@H](COP(=O)(O)OP(=O)(O)OC[C@H]3O[C@@H](n4cnc5c(N)ncnc54)[C@H](O)[C@@H]3O)[C@@H](O)[C@H]2O)c1; assay: cells, lysate or membranes; conditions: 600 μM P5C/γGS (saturating), 0.01-2.5 mM NAD+, potassium phosphate pH 7.2, 28°C, crude homogenate, varied: cofactor

B1: TbP5CDH (Trypanosoma brucei brucei TREU927) (protein)
chain: PPAVNERMDSFQPGSDSARGTLEACKRLRCGATDCPIVIGGKEYRTDNAINRMIPSSHQQQVAKGYNATPELAQKAIDTALGAAKEWSQMPFKDRAAIFLHAAHLISTKYRHELRAATMLGQSKNPFQAEIDVIAESCDFLRFSVKYAEELYNQQPISPASGPVWNALDYRPLEGFVSVIAPFNFSAIAANLVACPALMGNVILWKPSPNAVLSNYLLYKVFEEAGLPAGVVNFMPCEPKVMTEVVNSHPELAGVAFTGSTNVFLSINKQIYSRLEEYRNIPRISGETGGKDFHLIHPTADMKMTAALTVRGAFEYQGQKCSATSRIYVPQSRWEELKGYLLELHGKLKMGQPDDFQSFMCAVIDETAFDRNKKYIDIAKADSSAYTIIAGGGCDKSEGWFIQPTIIVAKDPNAQLLREEIFGPILTVHVYDDSKPDFWSEACNLVNNATKYALTGSIFAQDRKAIRDATEKHLRYAAGNYYINDKCTGAVVGQQPFGGARASGSNDKPGSALFLTRWVSARTIKENFDHSAQVSYPHQLPDYVTL
B1 was tested, and the Km [1] was 92.7 ± 14 µM and the Km [2] was 380 ± 40 µM.
